Source: FireProtDB (doi:10.1093/protein/gzi067)
Where “and” joins values, the source holds several entries; their conditions need not be identical. Equal entries are not always repeated.

Settings: Bos taurus, pH 7, 25 °C, CD, MOPS 30 mM, reversible: yes (partial), whole UniProt chain shown

B1: Cytochrome b5 wild type, P00171 (protein)
chain: MAEESSKAVKYYTLEEIQKHNNSKSTWLILHYKVYDLTKFLEEHPGGEEVLREQAGGDATENFEDVGHSTDARELSKTFIIGELHPDDRSKITKPSESIITTIDSNPSWWTNWLIPAISALFVALIYHLYTSEN
GdnHCl
  denaturant midpoint (higher = more stable): 1.27 M
  unfolding free energy: 3.2 kcal/mol
GdnSCN
  denaturant midpoint (higher = more stable): 1.52 M and 2.04 M
